Test results as given in publication PMC5923319 (Toxins, 2018).

B1: GST-fused recombinant human SV2B-L4 (domain or fragment, UniProt Q7L1I2 410-536, looked up)
chain: WFPDMIRYFQDEEYKSKMKVFFGEHVYGATINFTMENQIHQHGKLVNDKFTRMYFKHVLFEDTFFDECYFEDVTSTDTYFKNCTIESTIFYNTDLYEHKFINCRFINSTFLEQKEGCHMDLEQDNDF
notes: also called non-glycosylated SV2B
B2: GST-fused recombinant human SV2C-L4 (domain or fragment, UniProt Q496J9 454-580, looked up)
chain: FPDVIKPLQSDEYALLTRNVERDKYANFTINFTMENQIHTGMEYDNGRFIGVKFKSVTFKDSVFKSCTFEDVTSVNTYFKNCTFIDTVFDNTDFEPYKFIDSEFKNCSFFHNKTGCQITFDDDYSAY
notes: also called non-glycosylated SV2C
B3: GST-fused recombinant human SV2A-L4 (domain or fragment, UniProt Q7L0J3 468-596, looked up)
chain: FPDMIRHLQAVDYASRTKVFPGERVEHVTFNFTLENQIHRGGQYFNDKFIGLRLKSVSFEDSLFEECYFEDVTSSNTFFRNCTFINTVFYNTDLFEYKFVNSRLINSTFLHNKEGCPLDVTGTGEGAYM
notes: also called non-glycosylated SV2A

Legend:
[1] = target: HcA1 (receptor binding domain of BoNT/A1), HA- and His6-tagged, for binding studies (Clostridium botulinum, UniProt A2I2U2 876-1296); test: pull-down; settings: both partners purified
[2] = target: HcA2 (receptor binding domain of BoNT/A2), HA- and His6-tagged, for binding studies (Clostridium botulinum A2 Kyoto-F, UniProt Q45894 874-1296); test: […]; Hepes buffer (50 mM Hepes pH 7.5, 150 mM NaCl); […]; settings: both partners purified

Binder	binding result [1]	binding result [2]
B1	binds	–
B2	binds	binds
B3	binds	–
